# Assay results taken from patent US9346871B2, “Engineered CXCL12 alpha locked dimer polypeptide” (The Medical College of Wisconsin, priority 2008, dated 2016).
# Entries after “also recorded” stand apart in the source; their conditions may differ. Where two headings read alike, the source gives them in different places.
# Legend:
# [1] = biological target: T1, CXCL12-α (Homo sapiens, UniProt P48061); assay: Binding of CXCR4 N-terminal p38 peptides to CXCL12-α; conditions: read-out: apparent Kd
# T1 construct: made in house; host or cells: E. coli
# T1 sequence (P48061 22-89 limits assumed): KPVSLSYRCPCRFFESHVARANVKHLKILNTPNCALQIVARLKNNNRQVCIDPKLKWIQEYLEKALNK
# [2] = biological target: T2, CXCR4 (Homo sapiens, UniProt P61073); assay: Ca2+-flux assay of CXCR4 activation in THP-1 cells; assay type: cell-based
# T2 construct: a Ca^2+-flux assay on CXCR4-expressing THP-1 cells; host or cells: THP-1
# T2 sequence (P61073 whole entry): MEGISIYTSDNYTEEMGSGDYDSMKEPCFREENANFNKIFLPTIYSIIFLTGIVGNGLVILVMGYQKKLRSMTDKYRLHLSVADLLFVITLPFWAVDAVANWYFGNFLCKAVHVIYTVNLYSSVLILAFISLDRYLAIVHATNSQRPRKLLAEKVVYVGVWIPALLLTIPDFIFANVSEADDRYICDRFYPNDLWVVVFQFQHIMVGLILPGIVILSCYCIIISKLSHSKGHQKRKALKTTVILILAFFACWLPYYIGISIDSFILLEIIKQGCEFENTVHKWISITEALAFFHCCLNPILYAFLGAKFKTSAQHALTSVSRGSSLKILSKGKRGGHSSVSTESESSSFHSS
# From the text: (§1) The Protein Data Bank (PDB), under accession numbers 2K01, 2K04, 2K03 and 2K05 contain coordinates for these structural models. Restraints employed for structure determination have been deposited in the Biological Magnetic Resonance Bank, accession numbers 15633, 15636, 15635 and 15637. […] THP-1 cells are a CXCR4-expressing monocyte leukemia cell line and were obtained from ATCC.
# The inventors monitored activation of CXCR4 using THP-1 cells and a similar Ca^2+-flux assay.
# [3] = system: THP-1 cells; assay: Transwell chemotaxis assay of THP-1 cells; assay type: cell-based
# From the text: FIG. 5. […] C) Schematic illustration of the bell-shaped profile for CXCL12-α-mediated chemotaxis arising from changes in relative concentrations of chemokine monomer and dimer.
# as §1
# [4] = Pulsed-field gradient NMR translational diffusion, CXCL12-α monomer-dimer equilibrium; assay type: physicochemical; conditions: 10, 50 and 150 μM protein
# Protocol: FIG. 1. […] The lines connecting the cysteines show where the intra- and intermolecular disulfide bonds are. […] Diffusion coefficients (Ds) of wild-type CXCL12 (black circles) in 20 mM sodium phosphate at pH 7.4 plotted versus chemokine concentration. […] D) N-terminal peptides corresponding to the first thirty-eight amino acids of CXCR4 are illustrated.
# [5] = system: HIV-1; conditions: compared with wild-type chemokine
# From the text: Certain strains of HIV (X4 or dual tropic) utilize CXCR4 as a co-receptor, and this interaction is critical for fusion of the viral and T cell membranes in the process of HIV entry.
# [6] = Heparin binding
# From the text: Further, in addition to binding CXCR4, CXCL12 also binds to heparin found in the extracellular matrix on cell surfaces. The inventors have shown that the CXCL12α2 locked dimer of the present invention also binds heparin. Amino acid substitutions in CXCL12, including K24S, K27S, or K24S/K27S can prevent heparin binding and increase the half-life of CXCL12 in vivo; therefore, similar mutations in CXCL12α2 would likely prevent heparin binding and increase the in vivo half-life of the dimer.
# [7] = Ca2+-flux, CXCR4-expressing THP-1 cells
"EC50 [2, 7]",Molecule,further results
,CC[C@H](C)[C@H](NC(=O)CNC(=O)[C@H](CCC(=O)O)NC(=O)[C@H](CCSC)NC(=O)[C@H](CO)NC(=O)CN)C(=O)N[C@@H](CO)C(=O)N[C@H](C(=O)N[C@@H](Cc1ccc(OS(=O)(=O)O)cc1)C(=O)N[C@H](C(=O)N[C@@H](CO)C(=O)N[C@@H](CC(=O)O)C(=O)N[C@@H](CC(N)=O)C(=O)N[C@@H](Cc1ccc(OS(=O)(=O)O)cc1)C(=O)N[C@H](C(=O)N[C@@H](CCC(=O)O)C(=O)N[C@@H](CCC(=O)O)C(=O)N[C@@H](CCSC)C(=O)NCC(=O)N[C@@H](CO)C(=O)NCC(=O)N[C@@H](CC(=O)O)C(=O)N[C@@H](Cc1ccc(OS(=O)(=O)O)cc1)C(=O)N[C@@H](CC(=O)O)C(=O)N[C@@H](CO)C(=O)N[C@@H](CCSC)C(=O)N[C@@H](CCCCN)C(=O)N[C@@H](CCC(=O)O)C(=O)N1CCC[C@H]1C(=O)N[C@@H](C)C(=O)N[C@@H](Cc1ccccc1)C(=O)N[C@@H](CCCNC(=N)N)C(=O)N[C@@H](CCC(=O)O)C(=O)N[C@@H](CCC(=O)O)C(=O)N[C@@H](CC(N)=O)C(=O)N[C@@H](C)C(=O)N[C@@H](CC(N)=O)C(=O)N[C@@H](Cc1ccccc1)C(=O)N[C@@H](CC(N)=O)C(=O)N[C@@H](CCCCN)C(=O)O)[C@@H](C)O)[C@@H](C)O)[C@@H](C)CC [p38-sY3],Kd [1]: 200 ± 200 nM
,CXCL12-α2: covalently locked dimer comprising two CXCL12 L36C/A65C sequences (SEQ ID NO: 1),CXCR4 functional character ([2]; detection of secondary messenger calcium): partial CXCR4 agonist; chemotactic response [3]: failed to attract cells; also recorded: does not chemoattract THP-1 cells; diffusion coefficient Ds [4]: 1.08-1.09 ×10^−6 cm^2s^−1; predicted inhibition of HIV-1 entry into human T cells [5]: more effective at lower concentrations; heparin binding [6]: binds heparin
4.3 ± 0.6 nM,R20A: wild-type CXCL12-α with R20 replaced by alanine (protein) KPVSLSYRCPCRFFESHVAAANVKHLKILNTPNCACQIVARLKNNNRQVCIDPKLKWIQEYLEKCLNK,"EC50, CXCR4 activation [2, 7]: no change in EC50"
5 ± 1.1 nM,K64A: CXCL12-α mutant K64A (protein) KPVSLSYRCPCRFFESHVARANVKHLKILNTPNCACQIVARLKNNNRQVCIDPKLKWIQEYLEACLNK,
3.7 ± 0.8 nM,E63A: CXCL12-α mutant E63A (protein) KPVSLSYRCPCRFFESHVARANVKHLKILNTPNCACQIVARLKNNNRQVCIDPKLKWIQEYLAKCLNK,
4.1 ± 0.1 nM,E60A: CXCL12-α mutant E60A (protein) KPVSLSYRCPCRFFESHVARANVKHLKILNTPNCACQIVARLKNNNRQVCIDPKLKWIQAYLEKCLNK,
654 nM,"R47E: CXCL12-α mutant, arginine 47 replaced by glutamic acid (protein) KPVSLSYRCPCRFFESHVARANVKHLKILNTPNCACQIVARLKNNNEQVCIDPKLKWIQEYLEKCLNK",
14.1 nM,R47A: CXCL12-α mutant R47A (protein) KPVSLSYRCPCRFFESHVARANVKHLKILNTPNCACQIVARLKNNNAQVCIDPKLKWIQEYLEKCLNK,
8.6 ± 2.4 nM,V49A: CXCL12-α mutant V49A (protein) KPVSLSYRCPCRFFESHVARANVKHLKILNTPNCACQIVARLKNNNRQACIDPKLKWIQEYLEKCLNK,
4.3 ± 0.9 nM,R41A: CXCL12-α mutant R41A (protein) KPVSLSYRCPCRFFESHVARANVKHLKILNTPNCACQIVAALKNNNRQVCIDPKLKWIQEYLEKCLNK,
10.1 nM,"K27A: CXCL12-α mutant, alanine at K27 (protein) KPVSLSYRCPCRFFESHVARANVKHLAILNTPNCACQIVARLKNNNRQVCIDPKLKWIQEYLEKCLNK",
5.1 ± 0.9 nM,"H25R: dimerization-impaired, preferentially monomeric CXCL12-α variant (protein, ends and bridges not checked, dimerization-impaired, preferentially monomeric CXCL12-α variant) KPVSLSYRCPCRFFESHVARANVKRLKILNTPNCACQIVARLKNNNRQVCIDPKLKWIQEYLEKCLNK",chemotactic response ([3]; listed as CXCL12-α (H25R)): induces chemotaxis over a broader range; chemotactic response ([3]; listed as CXCL12-α(H25R)): promotes cell migration much more strongly than the wild-type chemokine at higher concentrations
27.1 nM,V39A: CXCL12-α mutant V39A (protein) KPVSLSYRCPCRFFESHVARANVKHLKILNTPNCACQIAARLKNNNRQVCIDPKLKWIQEYLEKCLNK,
16.8 nM,"K27E: CXCL12-α mutant, glutamic acid at K27 (protein) KPVSLSYRCPCRFFESHVARANVKHLEILNTPNCACQIVARLKNNNRQVCIDPKLKWIQEYLEKCLNK",
